In patent US20210324028A1 (Pfizer, published 2021):

T1: human IL-2Rβ (human, UniProt P14784 27-240, limits assumed)
T1 construct: also called hIL-2Rβ; IL-2 receptor beta
T1 sequence (looked up): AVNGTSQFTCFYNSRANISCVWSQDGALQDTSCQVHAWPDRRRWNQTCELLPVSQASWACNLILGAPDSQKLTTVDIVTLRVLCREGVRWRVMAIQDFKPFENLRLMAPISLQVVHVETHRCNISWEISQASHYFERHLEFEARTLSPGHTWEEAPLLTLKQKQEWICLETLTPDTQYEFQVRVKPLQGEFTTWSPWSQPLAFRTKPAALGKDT

T2: IL-15 signaling receptor on 32D[pRF770+pRF791] cells (human CD122 plus mouse CD132) (human; mouse, UniProt P14784 27-551; P34902 23-369)
T2 sequence (looked up) 1: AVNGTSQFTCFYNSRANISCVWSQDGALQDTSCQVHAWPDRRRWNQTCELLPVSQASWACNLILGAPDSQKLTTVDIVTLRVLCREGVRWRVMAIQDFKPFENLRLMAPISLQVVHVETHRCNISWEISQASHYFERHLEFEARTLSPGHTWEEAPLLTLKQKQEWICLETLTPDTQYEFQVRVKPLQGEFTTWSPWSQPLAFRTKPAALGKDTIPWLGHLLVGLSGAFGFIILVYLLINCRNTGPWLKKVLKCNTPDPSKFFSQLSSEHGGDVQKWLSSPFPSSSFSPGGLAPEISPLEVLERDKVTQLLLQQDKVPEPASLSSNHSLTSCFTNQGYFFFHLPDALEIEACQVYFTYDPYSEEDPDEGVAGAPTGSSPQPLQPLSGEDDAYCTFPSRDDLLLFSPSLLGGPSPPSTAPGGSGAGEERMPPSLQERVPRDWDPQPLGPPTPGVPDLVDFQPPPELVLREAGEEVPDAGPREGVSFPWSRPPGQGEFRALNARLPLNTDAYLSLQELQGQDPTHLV
T2 sequence (looked up) 2: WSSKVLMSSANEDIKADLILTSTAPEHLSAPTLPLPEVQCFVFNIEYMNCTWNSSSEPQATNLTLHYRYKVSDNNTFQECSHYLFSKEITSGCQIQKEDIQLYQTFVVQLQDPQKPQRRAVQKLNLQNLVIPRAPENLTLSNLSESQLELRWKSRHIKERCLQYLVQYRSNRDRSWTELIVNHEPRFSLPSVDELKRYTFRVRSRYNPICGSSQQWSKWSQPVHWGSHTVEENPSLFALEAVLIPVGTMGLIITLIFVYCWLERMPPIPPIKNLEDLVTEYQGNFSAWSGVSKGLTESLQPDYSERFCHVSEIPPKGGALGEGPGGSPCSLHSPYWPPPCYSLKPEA

T3: mouse PD-1 on doxycycline-induced 32D[pRF770+pRF791] cells (mouse, UniProt Q02242 25-288)
T3 sequence (looked up): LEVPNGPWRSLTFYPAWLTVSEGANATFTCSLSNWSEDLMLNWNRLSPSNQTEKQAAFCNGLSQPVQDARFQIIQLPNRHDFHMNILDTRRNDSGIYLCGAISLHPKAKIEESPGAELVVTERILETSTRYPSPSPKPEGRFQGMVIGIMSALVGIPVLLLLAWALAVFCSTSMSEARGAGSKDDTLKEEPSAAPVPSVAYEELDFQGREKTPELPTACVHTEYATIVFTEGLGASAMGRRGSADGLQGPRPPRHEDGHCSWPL


Columns and labels:
human IL-15Rα = target: T4, human IL-15Rα (human, UniProt Q13261 31-205, limits assumed); assay: SPR 37C, fusion captured by anti-human Fc
T4 construct: also called hIL-15Rα; IL-15 receptor alpha
T4 sequence (Q13261 31-205 limits assumed): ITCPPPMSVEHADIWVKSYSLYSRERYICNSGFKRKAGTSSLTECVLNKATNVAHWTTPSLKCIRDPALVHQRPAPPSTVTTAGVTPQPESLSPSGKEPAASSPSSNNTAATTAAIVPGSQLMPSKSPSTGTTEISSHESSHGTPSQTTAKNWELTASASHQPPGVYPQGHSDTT
Procedure, shortened: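 Anti-PD-1–hIL-15 fusions captured at 10 μg/mL on an anti-human Fc surface, receptor injected at 37 °C in HEPES-buffered saline with 0.05% Tween-20 and 1 mg/mL BSA, pH 7.4; 5 min dissociation.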

human IL-2Rβ [1] = target: T1, human IL-2Rβ; assay: SPR, steady state, fusion captured
Description: (§1) Anti-human Fc sensor chips were prepared at 25° C. with a running buffer of 10 mM HEPES, 150 mM NaCl, 0.05% (v/v) Tween-20, pH 7.4. All surfaces of a Biacore CM4 sensor chip were activated with a 1:1 (v/v) mixture of 400 mM EDC and 100 mM NHS for 7 minutes, at a flow rate of 10 μL/min. An anti-human Fc reagent (Goat anti-human IgG Fc-γ specific, SouthernBiotech, Birmingham, Ala., Catalog #2014-01) was diluted to 50 μg/mL in 10 mM sodium acetate (pH 4.5) and injected on all flow cells for 7 minutes at 20 μL/min. All flow cells were blocked with 100 mM ethylenediamine in 200 mM Borate buffer pH 8.5 for 7 minutes at 10 μL/min.
(§2) All protein interaction experiments were performed at 37° C. using a running buffer of 10 mM HEPES, 150 mM NaCl, 0.05% (v/v) Tween-20, pH 7.4, 1 mg/mL BSA. Anti-PD-1-hIL-15 fusion proteins were captured at 10 μg/mL at a flow rate of 10 μL/min for 2 minutes. Different fusion proteins were captured in flow cells 2, 3 and 4. No protein was captured onto flow cell 1 which was used as a reference surface. […] After each analyte injection, dissociation was monitored for 5 minutes followed by regeneration of all flow cells with three 60-second injections of 75 mM phosphoric acid. […] For kinetic analysis, the double-referenced sensorgrams were fit globally to a simple 1:1 Langmuir with mass transport binding model using Biacore T200 Evaluation Software version 2.0. For steady-state affinity analysis, the double-referenced equilibrium binding responses were fit with a 1:1 Langmuir steady-state model using Biacore T200 Evaluation Software version 2.0.

[2] = target: T2, IL-15 signaling receptor on …; assay: cell-based or functional assay
[3] = target: T3, mouse PD-1 on doxycycline-induced …; assay: cell-based or functional assay
human IL-2Rβ [4] = target: T1, human IL-2Rβ; assay: SPR, fusion captured
Description: as §1, §2

binding result (human IL-15Rα)	Kd (human IL-2Rβ [1]) [nM]	pSTAT5 EC50 on PD-1(low) 32D reporter cells [2] [nM]	Fold change = EC50 (PD-1(low))/EC50 (PD-1+) [3] [fold]	pSTAT5 EC50 on PD-1+ 32D reporter cells [3]	Kd (human IL-2Rβ [4]) [nM]	Binder
no binding (tested: 3000 nM)	433	76.9	1450	53.1 pM	–	xmPD-1-IL15 m1 (other, also called xmPD-1-hIL15 V49R/E46G/N1A/D30N) heavy 1: EVQLVESGGGLVKPGGSLELSCAASGFTFSSYWMSWVRQAPEKGLEWVAAISPSGGSTYYADSVKGRFTISRDNAKNTLFLQMTSLRSEDTAMYYCAKESWGAYYDLWGQGTTVTVSSASTKGPSVFPLAPSSKSTSGGTAALGCLVKDYFPEPVTVSWNSGALTSGVHTFPAVLQSSGLYSLSSVVTVPSSSLGTQTYICNVNHKPSNTKVDKKVEPKSCDKTHTCPPCPAPEAAGAPSVFLFPPKPKDTLMISRTPEVTCVVVDVSHEDPEVKFNWYVDGVEVHNAKTKPREEQYNSTYRVVSVLTVLHQDWLNGKEYKCKVSNKALPAPIEKTISKAKGQPREPQVYTLPPCREEMTKNQVSLSCAVKGFYPSDIAVEWESNGQPENNYKTTPPVLDSDGSFFLVSKLTVDKSRWQQGNVFSCSVMHEALHNHYTQKSLSLSPGSGGGGSGGGGSGGGGAWVNVISDLKKIEDLIQSMHIDATLYTESNVHPSCKVTAMKCFLLGLQRISLESGDASIHDTVENLIILANNSLSSNGNVTESGCKECEELEEKNIKEFLQSFVHIVQMFINTS heavy 2: EVQLVESGGGLVKPGGSLELSCAASGFTFSSYWMSWVRQAPEKGLEWVAAISPSGGSTYYADSVKGRFTISRDNAKNTLFLQMTSLRSEDTAMYYCAKESWGAYYDLWGQGTTVTVSSASTKGPSVFPLAPSSKSTSGGTAALGCLVKDYFPEPVTVSWNSGALTSGVHTFPAVLQSSGLYSLSSVVTVPSSSLGTQTYICNVNHKPSNTKVDKKVEPKSCDKTHTCPPCPAPEAAGAPSVFLFPPKPKDTLMISRTPEVTCVVVDVSHEDPEVKFNWYVDGVEVHNAKTKPREEQYNSTYRVVSVLTVLHQDWLNGKEYKCKVSNKALPAPIEKTISKAKGQPREPQVCTLPPSREEMTKNQVSLWCLVKGFYPSDIAVEWESNGQPENNYKTTPPVLDSDGSFFLYSKLTVDKSRWQQGNVFSCSVMHEALHNHYTQKSLSLSPGK light: DIVMTQSPSSLSVSAGDKVTMSCRASQGISSWLAWYQQKPWQPPKLLIYKASTLESGVPDRFTGSGSGTDFTLTISSVQAEDLAVYYCQQSYSTPWTFGGGTKLEIKGTVAAPSVFIFPPSDEQLKSGTASVVCLLNNFYPREAKVQWKVDNALQSGNSQESVTEQDSKDSTYSLSSTLTLSKADYEKHKVYACEVTHQGLSSPVTKSFNRGEC
no binding (tested: 3000 nM)	–	734	2370	0.31 nM	> 1500	xmPD-1-IL15 m2 (other, also called xmPD-1-hIL15 V49R/E46G/N1G/E64Q/D30N) heavy 1: EVQLVESGGGLVKPGGSLELSCAASGFTFSSYWMSWVRQAPEKGLEWVAAISPSGGSTYYADSVKGRFTISRDNAKNTLFLQMTSLRSEDTAMYYCAKESWGAYYDLWGQGTTVTVSSASTKGPSVFPLAPSSKSTSGGTAALGCLVKDYFPEPVTVSWNSGALTSGVHTFPAVLQSSGLYSLSSVVTVPSSSLGTQTYICNVNHKPSNTKVDKKVEPKSCDKTHTCPPCPAPEAAGAPSVFLFPPKPKDTLMISRTPEVTCVVVDVSHEDPEVKFNWYVDGVEVHNAKTKPREEQYNSTYRVVSVLTVLHQDWLNGKEYKCKVSNKALPAPIEKTISKAKGQPREPQVYTLPPCREEMTKNQVSLSCAVKGFYPSDIAVEWESNGQPENNYKTTPPVLDSDGSFFLVSKLTVDKSRWQQGNVFSCSVMHEALHNHYTQKSLSLSPGSGGGGSGGGGSGGGGGWVNVISDLKKIEDLIQSMHIDATLYTESNVHPSCKVTAMKCFLLGLQRISLESGDASIHDTVQNLIILANNSLSSNGNVTESGCKECEELEEKNIKEFLQSFVHIVQMFINTS heavy 2: EVQLVESGGGLVKPGGSLELSCAASGFTFSSYWMSWVRQAPEKGLEWVAAISPSGGSTYYADSVKGRFTISRDNAKNTLFLQMTSLRSEDTAMYYCAKESWGAYYDLWGQGTTVTVSSASTKGPSVFPLAPSSKSTSGGTAALGCLVKDYFPEPVTVSWNSGALTSGVHTFPAVLQSSGLYSLSSVVTVPSSSLGTQTYICNVNHKPSNTKVDKKVEPKSCDKTHTCPPCPAPEAAGAPSVFLFPPKPKDTLMISRTPEVTCVVVDVSHEDPEVKFNWYVDGVEVHNAKTKPREEQYNSTYRVVSVLTVLHQDWLNGKEYKCKVSNKALPAPIEKTISKAKGQPREPQVCTLPPSREEMTKNQVSLWCLVKGFYPSDIAVEWESNGQPENNYKTTPPVLDSDGSFFLYSKLTVDKSRWQQGNVFSCSVMHEALHNHYTQKSLSLSPGK light: DIVMTQSPSSLSVSAGDKVTMSCRASQGISSWLAWYQQKPWQPPKLLIYKASTLESGVPDRFTGSGSGTDFTLTISSVQAEDLAVYYCQQSYSTPWTFGGGTKLEIKGTVAAPSVFIFPPSDEQLKSGTASVVCLLNNFYPREAKVQWKVDNALQSGNSQESVTEQDSKDSTYSLSSTLTLSKADYEKHKVYACEVTHQGLSSPVTKSFNRGEC
